Experimental data: patent US20120308564A1 (published 2012)

Tests used:
human IL-18 [1] = target: T1, human IL-18 (human, UniProt Q14116 37-193); assay: cell-based or functional assay
T1 sequence (looked up): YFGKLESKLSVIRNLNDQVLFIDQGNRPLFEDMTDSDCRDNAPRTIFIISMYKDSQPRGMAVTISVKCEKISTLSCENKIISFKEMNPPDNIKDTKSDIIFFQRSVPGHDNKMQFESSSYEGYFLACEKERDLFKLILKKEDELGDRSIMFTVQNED

human IL-18 [2] = target: T1, human IL-18; assay: method not given; the same paragraph names BIAcore and FORTEbio as possible methods and mentions 25 C

IL-6 gene expression in IL-18 stimulated ex-vivo human whole blood (Affymetrix microarray), IL-18 50 ng/ml + H1L2 1 ug/ml vs IL-18 alone (human IL-18 [1]): 7 fold decrease
IRS2 gene expression in IL-18 stimulated ex-vivo human whole blood (microarray), IL18+H1L2 vs IL18 alone (human IL-18 [1]): 1.4 fold increase
JAK2 gene expression in IL-18 stimulated ex-vivo human whole blood (microarray), IL18+H1L2 vs IL-18 alone (human IL-18 [1]): 2.1 fold decrease
MCP-1 gene expression in IL-18 stimulated ex-vivo human whole blood (microarray), IL18+H1L2 vs IL18 alone (human IL-18 [1]): 2.6 fold decrease
MCP-4 gene expression in IL-18 stimulated ex-vivo human whole blood (microarray), IL18+H1L2 vs IL18 alone (human IL-18 [1]): 2.5 fold decrease
PPAR gamma gene expression in IL-18 stimulated ex-vivo human whole blood (microarray), IL18+H1L2 vs IL18 alone (human IL-18 [1]): 1.7 fold increase
SOCS3 gene expression in IL-18 stimulated ex-vivo human whole blood (microarray), IL18+H1L2 vs IL-18 alone (human IL-18 [1]): 1.9 fold decrease
STAT3 gene expression in IL-18 stimulated ex-vivo human whole blood (microarray), IL18+H1L2 vs IL-18 alone (human IL-18 [1]): 1.6 fold decrease
Kd (human IL-18 [2]): 0.0303 nM
B1: H1L2 (SEQ ID NO:7 and SEQ ID NO:11) (antibody, human IgG1, kappa, V domains shown)
VH: QVQLVQSGAEVKKPGASVKVSCKVSGEISTGYYFHWVRQAPGKGLEWMGRIDPEDDSTKYAERFKDRVTMTEDTSTDTAYMELSSLRSEDTAVYYCTTWRIYRDSSGRPFYVMDAWGQGTLVTVSS
VL: DIQMTQSPSSVSASVGDRVTITCLASEDIYTYLTWYQQKPGKAPKLLIYGANKLQDGVPSRFSGSGSGTDYTLTISSLQPEDFATYYCLQGSKFPLTFGQGTKLEIKR
notes: also called anti-IL-18 antibody H1L2
